Measurements taken from patent US20230391861A1 (Stanford University, published 2023).
Where a chain is given by its changes, count along the chain named. Values belong to the molecule of their own block, whether it stands above or below them.

Tests used:
[1] = molecular target: T1, PTCH1 on NIH-3T3 / 3T3-Light2 cells (UniProt Q61115 1-1434, limits assumed); assay: cell-based or functional assay
T1 sequence (looked up): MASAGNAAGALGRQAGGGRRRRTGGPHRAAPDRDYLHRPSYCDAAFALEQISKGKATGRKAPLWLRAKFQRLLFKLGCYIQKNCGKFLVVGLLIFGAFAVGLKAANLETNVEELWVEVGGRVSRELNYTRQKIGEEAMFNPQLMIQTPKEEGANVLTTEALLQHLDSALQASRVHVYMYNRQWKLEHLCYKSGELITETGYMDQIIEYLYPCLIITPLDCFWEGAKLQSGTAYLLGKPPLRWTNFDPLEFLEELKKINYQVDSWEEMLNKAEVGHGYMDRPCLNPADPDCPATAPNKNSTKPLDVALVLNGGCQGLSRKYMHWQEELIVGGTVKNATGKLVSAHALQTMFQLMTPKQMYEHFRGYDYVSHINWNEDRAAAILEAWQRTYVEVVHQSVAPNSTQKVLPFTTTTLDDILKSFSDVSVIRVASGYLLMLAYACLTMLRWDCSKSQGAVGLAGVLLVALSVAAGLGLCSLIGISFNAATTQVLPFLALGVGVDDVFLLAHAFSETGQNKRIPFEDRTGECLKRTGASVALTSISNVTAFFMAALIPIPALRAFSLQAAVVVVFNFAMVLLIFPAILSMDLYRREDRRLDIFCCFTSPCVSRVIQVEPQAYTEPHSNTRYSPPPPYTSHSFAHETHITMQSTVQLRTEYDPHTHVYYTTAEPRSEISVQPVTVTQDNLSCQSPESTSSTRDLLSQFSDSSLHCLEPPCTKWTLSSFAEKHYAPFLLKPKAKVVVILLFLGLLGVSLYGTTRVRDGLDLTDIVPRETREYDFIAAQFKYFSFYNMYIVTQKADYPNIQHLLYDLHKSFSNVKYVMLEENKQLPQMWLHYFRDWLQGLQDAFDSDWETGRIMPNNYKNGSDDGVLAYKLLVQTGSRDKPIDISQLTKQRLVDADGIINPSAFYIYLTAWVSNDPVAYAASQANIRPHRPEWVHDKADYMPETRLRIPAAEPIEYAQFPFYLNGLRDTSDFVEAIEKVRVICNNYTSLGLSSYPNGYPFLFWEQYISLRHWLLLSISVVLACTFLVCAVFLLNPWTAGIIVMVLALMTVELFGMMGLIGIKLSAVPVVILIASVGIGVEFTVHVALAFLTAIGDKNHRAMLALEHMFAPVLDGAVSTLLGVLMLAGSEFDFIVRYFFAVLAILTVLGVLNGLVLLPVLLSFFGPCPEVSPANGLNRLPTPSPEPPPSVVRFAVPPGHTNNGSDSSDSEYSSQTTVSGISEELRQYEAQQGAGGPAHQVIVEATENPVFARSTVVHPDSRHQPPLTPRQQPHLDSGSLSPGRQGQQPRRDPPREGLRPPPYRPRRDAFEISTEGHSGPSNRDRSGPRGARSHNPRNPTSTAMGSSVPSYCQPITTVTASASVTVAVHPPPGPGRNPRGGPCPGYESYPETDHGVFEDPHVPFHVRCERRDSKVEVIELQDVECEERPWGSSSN

[2] = molecular target: T2, Ptch1-C-NNQ (Ptch1-C with D499N, D500N, E1081Q) (mouse, UniProt Q61115 1-618; Q61115 712-1173); assay: two-color staining of yeast cells expressing the variants
T2 construct: range 1-618;range 712-1173; also called PTCH1-NNQ; NNQ variant; not shown: 1D4 tag
T2 sequence (looked up): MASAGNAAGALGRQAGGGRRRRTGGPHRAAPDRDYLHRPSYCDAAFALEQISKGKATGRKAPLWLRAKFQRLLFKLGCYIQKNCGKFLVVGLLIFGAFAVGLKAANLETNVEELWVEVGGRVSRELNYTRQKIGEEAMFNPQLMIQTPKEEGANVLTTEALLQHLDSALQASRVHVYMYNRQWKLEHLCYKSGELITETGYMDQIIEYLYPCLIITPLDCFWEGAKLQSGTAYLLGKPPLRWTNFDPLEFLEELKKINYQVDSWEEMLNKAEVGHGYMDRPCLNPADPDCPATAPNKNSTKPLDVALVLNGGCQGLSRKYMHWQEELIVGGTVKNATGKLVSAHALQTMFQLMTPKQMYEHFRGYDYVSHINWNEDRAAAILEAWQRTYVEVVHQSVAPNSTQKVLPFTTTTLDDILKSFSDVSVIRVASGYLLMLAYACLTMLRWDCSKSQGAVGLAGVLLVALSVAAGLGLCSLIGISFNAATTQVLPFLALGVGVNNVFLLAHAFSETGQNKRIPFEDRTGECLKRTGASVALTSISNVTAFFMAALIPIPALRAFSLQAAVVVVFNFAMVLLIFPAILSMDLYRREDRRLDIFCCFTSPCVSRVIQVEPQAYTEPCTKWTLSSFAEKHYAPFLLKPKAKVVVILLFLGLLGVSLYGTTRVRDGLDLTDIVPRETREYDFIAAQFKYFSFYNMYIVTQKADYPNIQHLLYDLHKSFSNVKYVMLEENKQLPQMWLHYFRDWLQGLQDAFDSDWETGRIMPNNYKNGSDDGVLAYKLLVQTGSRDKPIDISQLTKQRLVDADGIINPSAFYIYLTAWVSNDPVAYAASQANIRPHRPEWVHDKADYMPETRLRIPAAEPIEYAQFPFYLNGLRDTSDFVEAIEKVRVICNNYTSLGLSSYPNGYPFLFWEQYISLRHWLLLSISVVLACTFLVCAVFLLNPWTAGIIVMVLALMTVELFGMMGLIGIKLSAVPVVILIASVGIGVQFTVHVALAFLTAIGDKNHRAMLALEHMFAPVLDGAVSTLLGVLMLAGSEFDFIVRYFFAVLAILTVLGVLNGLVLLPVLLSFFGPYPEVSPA

[3] = molecular target: T3, Human PTCH1 on HEPM cells (human, UniProt Q13635 1-1447); assay: cell-based or functional assay
T3 sequence (looked up): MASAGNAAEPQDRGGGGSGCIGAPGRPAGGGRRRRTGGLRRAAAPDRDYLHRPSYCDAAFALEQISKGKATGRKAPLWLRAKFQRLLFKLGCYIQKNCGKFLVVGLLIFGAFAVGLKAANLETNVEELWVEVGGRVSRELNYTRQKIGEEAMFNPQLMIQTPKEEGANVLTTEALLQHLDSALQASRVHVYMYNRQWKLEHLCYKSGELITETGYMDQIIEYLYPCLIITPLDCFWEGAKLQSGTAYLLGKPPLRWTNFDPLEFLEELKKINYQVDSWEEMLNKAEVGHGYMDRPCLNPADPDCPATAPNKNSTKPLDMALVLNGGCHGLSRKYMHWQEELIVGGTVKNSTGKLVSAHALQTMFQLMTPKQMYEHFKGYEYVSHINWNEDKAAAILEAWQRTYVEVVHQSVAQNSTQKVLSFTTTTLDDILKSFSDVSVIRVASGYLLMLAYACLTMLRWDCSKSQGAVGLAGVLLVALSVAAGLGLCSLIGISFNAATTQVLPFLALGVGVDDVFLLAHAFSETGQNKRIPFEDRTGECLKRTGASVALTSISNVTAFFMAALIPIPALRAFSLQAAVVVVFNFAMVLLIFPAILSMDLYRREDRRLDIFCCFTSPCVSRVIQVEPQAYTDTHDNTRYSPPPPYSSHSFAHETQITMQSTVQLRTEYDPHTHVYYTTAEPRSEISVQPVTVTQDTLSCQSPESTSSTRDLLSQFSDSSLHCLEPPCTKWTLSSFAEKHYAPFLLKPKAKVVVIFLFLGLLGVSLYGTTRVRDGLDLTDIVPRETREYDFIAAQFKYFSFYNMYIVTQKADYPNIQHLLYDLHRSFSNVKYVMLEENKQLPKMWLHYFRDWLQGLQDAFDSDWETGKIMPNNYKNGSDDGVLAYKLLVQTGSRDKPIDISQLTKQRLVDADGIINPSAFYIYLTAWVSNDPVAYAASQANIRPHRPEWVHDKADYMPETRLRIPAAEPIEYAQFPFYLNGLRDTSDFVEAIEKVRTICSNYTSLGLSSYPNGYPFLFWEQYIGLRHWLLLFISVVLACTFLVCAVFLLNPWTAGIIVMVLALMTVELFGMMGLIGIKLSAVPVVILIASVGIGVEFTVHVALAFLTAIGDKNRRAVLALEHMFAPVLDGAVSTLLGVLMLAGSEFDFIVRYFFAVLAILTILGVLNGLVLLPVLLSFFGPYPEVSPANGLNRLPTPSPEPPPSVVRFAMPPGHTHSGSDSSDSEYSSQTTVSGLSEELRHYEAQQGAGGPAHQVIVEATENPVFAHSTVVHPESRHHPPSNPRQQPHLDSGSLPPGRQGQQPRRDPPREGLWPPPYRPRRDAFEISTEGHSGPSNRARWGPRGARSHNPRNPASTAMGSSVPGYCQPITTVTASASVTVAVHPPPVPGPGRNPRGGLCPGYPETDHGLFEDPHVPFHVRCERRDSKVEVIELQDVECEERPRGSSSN

B1: T23 nanobody (VHH)
VHH: QVQLQESGGGLVQAGGSLRLSCAASGNIFAYYIMGWYRQAPGKERELVATIDIGGNTNYADSVKGRFTISRDNAKNTVYLQMNSLKPEDTAVYYCAVQAVPYRYRRYWGQGTQVTVSS
notes: also called 23T
- binding result [2]: binds

B3: TI23 nanobody (VHH)
VHH: B1 VHH with T77N, Y102I
- EC50, transcription of GLI1 in HEPM cells (qPCR) [3]: 16 nM
- EC50, transcription of PTCH1 in HEPM cells (qPCR) [3]: 18.5 nM
- EC50, Gli-dependent luciferase reporter in 3T3 cells [1]: 8.6 nM
- EC50, Gli-luciferase assay in NIH-3T3 cells [1]: 6.9 nM
- maximum response relative to ShhNp, Gli-luciferase assay [1]: ~75%

Second part, the molecule after the results:

- EC50, Gli-luciferase assay in NIH-3T3 cells [1]: 1.4 nM
Molecule: ShhNp (ligand)

- binding result [2]: binds
B2: Nanobody clone 23 (VHH)
VHH: B1 VHH with T50G, R105H, R106G
notes: Initial clone from the synthetic yeast display library; also called Nb23; NB23
